Source: patent publication US20030022260

Key:
[1] = tested on: HA-E2F-5/DP-1 in cells (Homo sapiens); test: cell_activity; conditions: U2-OS CAT reporter; E2F-5 plus DP-1
[2] = biological target: GAD-E2F-5/LexA-DP-1 in yeast (Mus musculus) (UniProt Q61502+Q08639); test: cell_activity; conditions: yeast lacZ reporter
Sequence of GAD-E2F-5/LexA-DP-1 in yeast (Mus musculus) (Q61502 whole entry, chain 1 of 2): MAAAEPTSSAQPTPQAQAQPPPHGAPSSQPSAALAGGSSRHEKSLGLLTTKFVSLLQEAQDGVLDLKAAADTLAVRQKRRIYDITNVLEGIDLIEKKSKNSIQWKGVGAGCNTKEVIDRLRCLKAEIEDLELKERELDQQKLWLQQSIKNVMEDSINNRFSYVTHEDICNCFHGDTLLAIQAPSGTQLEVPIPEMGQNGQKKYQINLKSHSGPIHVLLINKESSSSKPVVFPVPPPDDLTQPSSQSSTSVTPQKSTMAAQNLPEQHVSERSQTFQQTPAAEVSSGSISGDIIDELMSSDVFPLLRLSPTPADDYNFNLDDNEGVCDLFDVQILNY
Sequence of GAD-E2F-5/LexA-DP-1 in yeast (Mus musculus) (Q08639 whole entry, chain 2 of 2): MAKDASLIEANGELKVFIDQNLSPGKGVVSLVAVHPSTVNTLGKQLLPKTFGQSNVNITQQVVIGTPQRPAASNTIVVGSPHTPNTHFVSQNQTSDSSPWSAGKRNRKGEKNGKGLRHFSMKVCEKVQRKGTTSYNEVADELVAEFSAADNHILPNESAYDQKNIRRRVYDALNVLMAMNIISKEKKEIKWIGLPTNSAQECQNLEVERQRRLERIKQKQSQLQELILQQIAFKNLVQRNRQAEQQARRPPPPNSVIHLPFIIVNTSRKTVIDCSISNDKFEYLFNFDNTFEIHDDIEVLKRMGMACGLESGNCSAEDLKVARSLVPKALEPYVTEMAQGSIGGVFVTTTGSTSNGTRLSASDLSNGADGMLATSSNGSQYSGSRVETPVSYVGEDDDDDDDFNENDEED

Substance	activity (fold activation) [1]	activity (fold activation) [2]
E2F4-CAT reporter, four E2F sites	> 100	–
p4xWT CYC1 reporter, four wild-type E2F sites	–	> 6
